Biological target: the molecule itself
Experiment: SEC

Protein | binding result
MBP-Ddn fusion protein, full-length wild-type deazaflavin-dependent nitroreductase (Ddn, Rv3547) fro (enzyme, also called WT MBP-Ddn) MPKSPPRFLNSPLSDFFIKWMSRINTWMYRRNDGEGLGGTFQKIPVALLTTTGRKTGQPRVNPLYFLRDGGRVIVAASKGGAEKNPMWYLNLKANPKVQVQIKKEVLDLTARDATDEERAEYWPQLVTMYPSYQDYQSWTDRTIPIVVCEP | binds
Untagged wild-type Ddn (full length), produced by proteolytic removal of MBP (enzyme, also called Untagged Ddn; untagged WT Ddn) MPKSPPRFLNSPLSDFFIKWMSRINTWMYRRNDGEGLGGTFQKIPVALLTTTGRKTGQPRVNPLYFLRDGGRVIVAASKGGAEKNPMWYLNLKANPKVQVQIKKEVLDLTARDATDEERAEYWPQLVTMYPSYQDYQSWTDRTIPIVVCEP | binds

— PMC3267046, “Structure of Ddn, the Deazaflavin-Dependent Nitroreductase from Mycobacterium tuberculosis Involved in Bioreductive Activation of PA-824” (Structure(London, England:1993), 2012)
